The data set concerns the target cardiac troponin I (cTnI) (human, UniProt P19429 2-210). Nature of the data set: strand displacement.

Chain of cardiac troponin I (cTnI) (P19429 2-210): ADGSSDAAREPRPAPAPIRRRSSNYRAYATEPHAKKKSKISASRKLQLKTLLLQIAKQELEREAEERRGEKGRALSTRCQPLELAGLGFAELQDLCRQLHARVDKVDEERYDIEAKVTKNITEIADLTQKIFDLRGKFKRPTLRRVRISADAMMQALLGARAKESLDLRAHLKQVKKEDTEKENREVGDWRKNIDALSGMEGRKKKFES

B1: Poly-T (ssDNA)
DNA: TTTTTTTTTTTTTTTTTTTTCTCATGCGCTGCCCCTCTTATTTTTTTTTTT
modifications: 3'-NH2
Take B1: the binding result is “no binding”.
